What was measured:
[1] = LPS-induced mortality, survival assay; type: in vivo, C57BL/6 mice; conditions: 72 hours
Procedure: (§1) In this study, female C57BL/6 mice of 10-12 weeks old (Taconic Biosciences) were used. Animals had free access to autoclaved and acidified drinking water. Animals were housed under standard laboratory conditions, air conditioned and filtered with adequate fresh air supply. Animals were kept in a climate controlled environment.
Lipopolysaccharide (LPS) from E. coli (O111:B4) was diluted in PBS.
SEQ ID NO:2 was stored in powder form at 4° C. until use. Powder was added to saline and vortexed into solution to prepare SEQ ID NO:2 stock solution.
For all other groups, LPS was injected intraperitoneally at 10 mg/kg. Mice were intravenously injected 15 minutes and 60 minutes after LPS administration with SEQ ID NO:2 at concentrations of 10, 25, 50 and 100 mg/kg. Except group 6, which was intravenously injected once at 15 minutes and once at 120 minutes after LPS administration.
When high doses of LPS are administered, animals will suffer LPS-induced shock and mortality may be observed. For 72 hours after LPS injection, mice were checked for mortality several times each day. All surviving mice were euthanized at the end of the study (day 3).

[2] = Ferric chloride induced arterial thrombosis model (clot weight and size); type: in vivo, Sprague-Dawley rats; conditions: 60 min after FeCl3; SEQ ID NO:2 5, 20, 40 mg/kg i.v.; Rivaroxaban 10 mg/kg oral; Warfarin 0.5 mg/kg i.v.
Procedure: Animal handling was performed according to guidelines of the National Institute of Health (NIH) and the Association for Assessment and Accreditation of Laboratory Animal Care (AAALAC). A total of 36 Sprague-Dawley rats (Envigo RMS) were divided into six groups comprising of 6 animals per group (3 males and 3 females). […] Both were fed ad libitum a rodent diet. Animals had free access to autoclaved and acidified drinking water. Animals were housed under standard laboratory conditions, air conditioned and filtered with adequate fresh air supply. Animals were kept in a climate controlled environment.
SEQ ID NO:2 (Biospring) (100 mg) was dissolved in 5 ml saline to form a stock solution of 20 mg/ml. Vehicle (saline, Teva) as ready to use for i.v. administration. Rivaroxaban (Bayer, Pharamseed Ltd) dosing solution was diluted at 10 mg/kg (Group 2M). Warfarin (Ceriliant, Pharmaseed Ltd) was diluted at 0.5 mg/kg (Group 3M). […]
Male and Female rats were anaesthetized by intraperitoneal injection of ketamine/xylazine. […] The time needed for occlusion to occur was measured for up to 60 min, and occlusion time was assigned a value of 60 min for vessels that […].
Clot formation was followed for 60 minutes following application of FeCl3. […] The artery wall was cut longitudinally; clot was taken out, weighed and measured by caliper. […]

[3] = test system: CD11b+CD14+ white blood cells; assay: Flow cytometry of CD11b and CD14 on white blood cells after LPS injection; type: in vivo, C57BL/6 mice; conditions: 2 h after LPS
Procedure: as §1, with “Female” for “In this study, female”, “mice” for “mice of 10-12 weeks old”, “8 weeks of age at the start of the study.” for “used.”
SEQ ID NO:2 (Biospring) (100 mg) was dissolved in 5 ml saline to form a stock solution of 20 mg/ml. Vehicle is saline solution.
Dexamethasone stock was prepared by mixing dexamethasone and beta-cyclodextrin at a 4:96 ratio, solubilized in PBS at 2 mg dexamethasone/mL and stored at −20° C. Dosing solution of dexamethasone was prepared by diluting the stock solution to 1 mg/mL with PBS. Dexamethasone administered at 5 to 10 mg/kg, i.p. is used as a positive control for suppression of the immune response.
Two hours after LPS injection mice were bled and blood samples were taken. Flow cytometry study was performed on BD FACSCalibur (lasers: 488 nm; 635 nm and UV). In our study we measured the expression of integrin Mac-1 (CD11b/18) on leukocytes by means of flow cytometry. Expression of CD11b on all leukocytes monocytes and granulocytes were assessed by flow cytometry using double fluorescence staining (CD 45/CD11b).

B1: SEQ ID NO:2: nucleic acid sequence of SEQ ID NO:1 in which each C and U is fluorinated to increase stability in plasma (nucleic acid)
chain: GGGAAUUCGAGCUCGGUACCAACAAUACGACUACACCAUCAAAAGUAUUAUCUUGCAUCGAAGGUUGGCACGUAGCAAGCUCUGCAGUCG
modifications: fluorinated C and U; (6)..(7) uracil is fluorinated; (8)..(8) cytosine is fluorinated; (12)..(12) cytosine is fluorinated; (13)..(13) uracil is fluorinated; (14)..(14) cytosine is fluorinated; (17)..(17) uracil is fluorinated; (19)..(20) cytosine is fluorinated; (23)..(23) cytosine is fluorinated; (26)..(26) uracil is fluorinated; (28)..(28) cytosine is fluorinated; (31)..(31) cytosine is fluorinated; (32)
[1]; 25 mg/kg i.v. twice after LPS 10 mg/kg i.p.
  survival compared to vehicle treated mice: significantly improved
[1]; 50 mg/kg i.v. twice after LPS 10 mg/kg i.p.
  survival compared to vehicle treated mice: significantly improved
[1]; 100 mg/kg i.v. twice after LPS 10 mg/kg i.p.
  survival compared to vehicle treated mice: significantly improved
[2]
  clot size compared to control group (Vehicle): reduction
  clot weight compared to control group (Vehicle): reduction
[3]; 5 mg/kg i.v.
  expression of CD11b compared to vehicle group: similar
  proportion of CD11b+CD14+ cells in white blood cells compared to vehicle group: similar
[3]; 25 mg/kg i.v.
  proportion of CD11b+CD14+ cells in white blood cells compared to vehicle group: significantly lower
[3]; 25 mg/kg i.v., not statistically significant
  expression of CD11b compared to vehicle group: lower
[3]; 50 mg/kg i.v.
  lower expression of CD11b, difference to vehicle group: statistically significant
  proportion of CD11b+CD14+ cells in white blood cells compared to vehicle group: significantly lower

Reference: patent publication US11110115B2, “Nucleic acid molecule with anti-inflammatory and anti-coagulant and organ-protective properties” (APTAHEM AB, priority 2017, dated 2021)
